Measured values: publication PMC12757075 (2026)

Target: actin filament barbed end (Oryctolagus cuniculus, UniProt P68135)
Test: pyrene-actin barbed-end elongation kinetic assay

Kd: ~1260 nM
B1: vinculin V1ab4 (protein)
chain: MPVFHTRTIESILEPVAQQISHLVIMHKEGEVHGKAIPDLTAPVAAVQAAVSNLVRVGKETVQTTEDQILKRDMPPAFIKVENACTKLVQAAQMLQSDPYSVPARDYLIHGSEGILSGTSDLLLTFDEAEVRKIIRVCKGILEYLTVAEVVETMEDLVTYTKNLGPGMTKMAKMIDERQQELTHQEHRVMLVNSMNTVKELLPVLISAMKIFVTTKNSKNQGIEEALKNRNFTVEKMSAEINEIIRVLQLTSWDEDAWASKDTEAMKRALASIDSKLNQAKGWLRDPSASPGDAGEQAIRQILDEAGKVGELCAGKERREILGTCKMLGQMTDQVADLRARGQGSSPVAMQKAQQVSQGLDVLTAKVENAARKLEAMTNSKQSIAKKIDAAQNWLADPNGGPEGEEQIRGALAEARKIAELCDDPKERDDILRSLGEISALTSKLADLRRQGKGDSPEARALAKQVATALQNLQTKTNRAVANSRPAKAAVHLEGKIEQAQRWIDNPTVDDRGVGQAAIRGLVAEGHRLANVMMGPYRQDLLAKCDRVDQLTAQLADLAARGEGESPQARALASQLQDSLKDLKARMQEAMTQEVSDVFSDTTTPIKLLAVAATAPPDAPNREEVFDERAANFENHSGKLGATAEKAAAVGTANKSTVEGIQASVKTARELTPQVVSAARILLRNPGNQAAYEHFETMKNQWIDNVEKMTGLVDEAIDTKSLLDASEEAIKKDLDKCKVAMANIQPQMLVAGATSIARRANRILLVAKREVEISKDPKFREAVKAASDELSKTISPMVMDAKAVAGNISDPGLQKSFLDSGYRILGAVAKVREAFQPQEPDFPPPPPDLEQLRLTDELAPPKPPLPEGEVPPPRPPPPEEKDEEFPEQKAGEVINQPMMMAARQLHDEARKWSSKPGIPAAEVGIGVVAEADAADAAGFPVPPDMEDDYEPELLLMPSNQPVNQPILAAAQSLHREATKWSSKGNDIIAAAKRMALLMAEMSRLVRGGSGTKRALIQCAKDIAKASDEVTRLAKEVAKQCTDKRIRTNLLQVCERIPTISTQLKILSTVKATMLGRTNISDEESEQATEMLVHNAQNLMQSVKETVREAEAASIKIRTDAGFTLRWVRKTPWYQ
